{
  "source": "patent US20250276077A1",
  "about": "“EPHA2 ANTIBODIES” (Immunome, Inc., priority 2022, published 2025)",
  "key": {"[1]": {"molecular_target": "Human EphA2 (ephrin receptor A2), native, in human tumor tissue (human) (UniProt P29317)", "sequence (P29317 25-976)": "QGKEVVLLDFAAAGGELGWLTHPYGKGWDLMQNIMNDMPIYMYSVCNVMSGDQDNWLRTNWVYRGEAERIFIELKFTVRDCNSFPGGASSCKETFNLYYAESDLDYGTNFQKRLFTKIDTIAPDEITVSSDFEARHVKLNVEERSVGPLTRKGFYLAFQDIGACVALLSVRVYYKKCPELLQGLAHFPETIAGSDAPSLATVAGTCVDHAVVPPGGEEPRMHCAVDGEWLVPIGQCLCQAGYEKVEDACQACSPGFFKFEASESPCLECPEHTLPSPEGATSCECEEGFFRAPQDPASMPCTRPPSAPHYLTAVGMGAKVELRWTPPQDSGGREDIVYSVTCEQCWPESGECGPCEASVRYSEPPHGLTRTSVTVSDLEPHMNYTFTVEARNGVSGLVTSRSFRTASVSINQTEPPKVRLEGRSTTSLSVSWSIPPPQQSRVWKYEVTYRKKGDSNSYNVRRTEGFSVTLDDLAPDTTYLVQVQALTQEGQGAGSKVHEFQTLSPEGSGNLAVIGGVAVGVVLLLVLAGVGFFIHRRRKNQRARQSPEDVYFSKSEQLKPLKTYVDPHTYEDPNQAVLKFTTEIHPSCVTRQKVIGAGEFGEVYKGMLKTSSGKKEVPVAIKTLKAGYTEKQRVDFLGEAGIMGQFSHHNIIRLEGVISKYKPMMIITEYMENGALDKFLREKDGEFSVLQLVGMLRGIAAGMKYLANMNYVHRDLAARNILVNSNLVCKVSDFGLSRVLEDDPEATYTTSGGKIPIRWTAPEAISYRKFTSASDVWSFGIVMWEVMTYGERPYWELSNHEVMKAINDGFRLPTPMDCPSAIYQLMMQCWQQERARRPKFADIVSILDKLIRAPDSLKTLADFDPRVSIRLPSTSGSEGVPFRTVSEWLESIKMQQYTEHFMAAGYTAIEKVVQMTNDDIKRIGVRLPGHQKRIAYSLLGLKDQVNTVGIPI", "experiment": "IF tumor tissue ESO, 3 ug/ml"}, "[2]": {"molecular_target": "Human EphA2 (ephrin receptor A2), native, in human tumor tissue (human) (UniProt P29317)", "experiment": "IF tumor tissue URO, 1 ug/ml"}, "[3]": {"molecular_target": "Human EphA2 (ephrin receptor A2), native, in human tumor tissue (human) (UniProt P29317)", "experiment": "IF tumor tissue URO, 3 ug/ml"}, "[4]": {"molecular_target": "Human EphA2 (ephrin receptor A2), native, in human tumor tissue (human) (UniProt P29317)", "experiment": "IF tumor tissue ESO, 30 ug/ml"}, "[5]": {"molecular_target": "Human EphA2 (ephrin receptor A2), native, in human tumor tissue (human) (UniProt P29317)", "experiment": "IF tumor tissue MELA, 3 ug/ml"}, "[6]": {"molecular_target": "Human EphA2 (ephrin receptor A2), native, in human tumor tissue (human) (UniProt P29317)", "experiment": "IF tumor tissue STS, 10 ug/ml"}, "[7]": {"molecular_target": "Human EphA2 (ephrin receptor A2), native, in human tumor tissue (human) (UniProt P29317)", "experiment": "IF tumor tissue URO, 30 ug/ml"}, "[8]": {"molecular_target": "Human EphA2 (ephrin receptor A2), native, in human tumor tissue (human) (UniProt P29317)", "experiment": "IF tumor tissue PANC, 10 ug/ml"}, "[9]": {"molecular_target": "Human EphA2 (ephrin receptor A2), native, in human tumor tissue (human) (UniProt P29317)", "experiment": "IF tumor tissue STS, 0.3 ug/ml"}, "[10]": {"molecular_target": "Human EphA2 (ephrin receptor A2), native, in human tumor tissue (human) (UniProt P29317)", "experiment": "IF tumor tissue URO, 0.1 ug/ml"}, "[11]": {"molecular_target": "Human EphA2 (ephrin receptor A2), native, in human tumor tissue (human) (UniProt P29317)", "experiment": "IF tumor tissue MELA, 0.1 ug/ml"}, "[12]": {"molecular_target": "Human EphA2 (ephrin receptor A2), native, in human tumor tissue (human) (UniProt P29317)", "experiment": "IF tumor tissue MELA, 0.3 ug/ml"}, "[13]": {"molecular_target": "Human EphA2 (ephrin receptor A2), native, in human tumor tissue (human) (UniProt P29317)", "experiment": "IF tumor tissue Uterine, 3 ug/ml"}, "[14]": {"molecular_target": "Human EphA2 (ephrin receptor A2), native, in human tumor tissue (human) (UniProt P29317)", "experiment": "IF tumor tissue NSCLC-SQ, 1 ug/ml"}, "[15]": {"molecular_target": "Human EphA2 (ephrin receptor A2), native, in human tumor tissue (human) (UniProt P29317)", "experiment": "IF tumor tissue NSCLC-SQ, 3 ug/ml"}, "[16]": {"molecular_target": "Human EphA2 (ephrin receptor A2), native, in human tumor tissue (human) (UniProt P29317)", "experiment": "IF tumor tissue Uterine, 30 ug/ml"}, "[17]": {"molecular_target": "Human EphA2 (ephrin receptor A2), native, in human tumor tissue (human) (UniProt P29317)", "experiment": "IF tumor tissue Uterine, 0.1 ug/ml"}, "[18]": {"molecular_target": "Human EphA2 (ephrin receptor A2), native, in human tumor tissue (human) (UniProt P29317)", "experiment": "IF tumor tissue Uterine, 0.3 ug/ml"}, "[19]": {"molecular_target": "Human EphA2 (ephrin receptor A2), native, in human tumor tissue (human) (UniProt P29317)", "experiment": "IF tumor tissue NSCLC-SQ, 0.1 ug/ml"}, "[20]": {"molecular_target": "Human EphA2 (ephrin receptor A2), native, in human tumor tissue (human) (UniProt P29317)", "experiment": "IF tumor tissue NSCLC-Adeno, 0.3 ug/ml"}, "[21]": {"molecular_target": "Human EphA2 (ephrin receptor A2), native, in human tumor tissue (human) (UniProt P29317)", "experiment": "IF tumor tissue RCC-papillary, 0.1 ug/ml"}, "[22]": {"molecular_target": "Human EphA2 (ephrin receptor A2), native, in human tumor tissue (human) (UniProt P29317)", "experiment": "IF tumor tissue RCC-papillary, 0.3 ug/ml"}, "[23]": {"molecular_target": "Human EphA2 (ephrin receptor A2), native, in human tumor tissue (human) (UniProt P29317)", "experiment": "tissue staining of human cancer samples, 10 ug/ml"}, "[24]": {"molecular_target": "C-terminally His-tagged hEphA2-FN2 (Thr437-Asn534+His tag) (human) (UniProt P29317)", "sequence (P29317 437-534 limits assumed)": "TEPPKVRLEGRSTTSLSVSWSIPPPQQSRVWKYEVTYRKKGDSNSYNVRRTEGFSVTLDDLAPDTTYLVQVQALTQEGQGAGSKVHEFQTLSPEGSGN", "experiment": "SPR Biacore T200, 25 C; mIgG2a as immobilized ligand, hEphA2-FN2-His analyte"}},
  "data": [
    {"substance": "AB-010018 (mouse monoclonal antibody precursor of DS-8895a; mouse IgG2a format)", "values": [
      {"measurement": "tissue reactivity score", "setting": "[1]", "value": 1},
      {"measurement": "tissue reactivity score", "setting": "[2]", "value": 2},
      {"measurement": "tissue reactivity score", "setting": "[3]", "value": 2},
      {"measurement": "tissue reactivity score", "setting": "[4]", "value": 2},
      {"measurement": "tissue reactivity score", "setting": "[5]", "value": 2},
      {"measurement": "tissue reactivity score", "setting": "[6]", "value": 1},
      {"measurement": "tissue reactivity score", "setting": "[7]", "value": 2},
      {"measurement": "tissue reactivity score", "setting": "[8]", "value": 2},
      {"measurement": "tissue reactivity score", "setting": "[9]", "value": 1},
      {"measurement": "tissue reactivity score", "setting": "[10]", "value": 2},
      {"measurement": "tissue reactivity score", "setting": "[11]", "value": 1},
      {"measurement": "tissue reactivity score", "setting": "[12]", "value": 2},
      {"measurement": "tissue reactivity score", "setting": "[13]", "value": 2},
      {"measurement": "tissue reactivity score", "setting": "[14]", "value": 1},
      {"measurement": "tissue reactivity score", "setting": "[15]", "value": 1},
      {"measurement": "tissue reactivity score", "setting": "[16]", "value": 2},
      {"measurement": "tissue reactivity score", "setting": "[17]", "value": 1},
      {"measurement": "tissue reactivity score", "setting": "[18]", "value": 2},
      {"measurement": "tissue reactivity score", "setting": "[19]", "value": 1},
      {"measurement": "tissue reactivity score", "setting": "[20]", "value": 1},
      {"measurement": "tissue reactivity score", "setting": "[21]", "value": 1},
      {"measurement": "tissue reactivity score", "setting": "[22]", "value": 1},
      {"measurement": "Reactive (% of samples), Bladder Cancer (Urothelial)", "setting": "[23]", "value": 86, "unit": "%"},
      {"measurement": "Reactive (% of samples), Breast Cancer", "setting": "[23]", "value": 79, "unit": "%"},
      {"measurement": "Reactive (% of samples), Cervical Cancer (Squamous)", "setting": "[23]", "value": 100, "unit": "%"},
      {"measurement": "Reactive (% of samples), Esophageal Cancer (Squamous)", "setting": "[23]", "value": 33, "unit": "%"},
      {"measurement": "Reactive (% of samples), Head & Neck Cancer (Squamous)", "setting": "[23]", "value": 87, "unit": "%"},
      {"measurement": "Reactive (% of samples), Liver Cancer (HCC)", "setting": "[23]", "value": 82, "unit": "%"},
      {"measurement": "Reactive (% of samples), Non-Small Cell Lung Cancer", "setting": "[23]", "value": 90, "unit": "%"},
      {"measurement": "Reactive (% of samples), Ovarian Cancer", "setting": "[23]", "value": 88, "unit": "%"},
      {"measurement": "Reactive (% of samples), Renal Cancer", "setting": "[23]", "value": 47, "unit": "%"},
      {"measurement": "Reactive (% of samples), Soft Tissue Sarcoma", "setting": "[23]", "value": 20, "unit": "%"},
      {"measurement": "Reactive (% of samples), Stomach Cancer (Adenocarcinoma)", "setting": "[23]", "value": 88, "unit": "%"},
      {"measurement": "Reactive (% of samples), Testicular Cancer", "setting": "[23]", "value": 56, "unit": "%"},
      {"measurement": "Reactive (% of samples), Thyroid Cancer", "setting": "[23]", "value": 31, "unit": "%"},
      {"measurement": "Reactive (% of samples), Uterine Cancer", "setting": "[23]", "value": 92, "unit": "%"},
      {"measurement": "Kd", "setting": "[24]", "value": 4.3, "unit": "nM"},
      {"measurement": "koff", "setting": "[24]", "value": 0.0021, "unit": "s⁻¹"},
      {"measurement": "kon", "setting": "[24]", "value": 490000, "unit": "M⁻¹ s⁻¹"}
    ]}
  ]
}
